Assay results: a protein production outcome set (Wang et al. 2014)

Experiment: label from the status in PepcDB records

Q: Which protein production does the source give for “MEGCVSNIMICNLAYSGKLDELKERILADKSLATRTDQDSRTALHWACSAGHTEIVEFLLQLGVPVNDKDDAGWSPLHIAASAGRDEIVKALLVKGAHVNAVNQNGCTPLHYAASKNRHEIAVMLLEGGANPDAKDHYDATAMHRAAAKGNLKMVHILLFYKASTNIQDTEGNTPLHLACDEERVEEAKFLVTQGASIYIENKEEKTPLQVAKGGLGLILKRLAEGEEASM” here?
A: not failed

Q: For “MEGDVYSGFGERYQMDGKLLQNFQKSFVQVQDILDQNRLLINEINQNHESKQADHLGRNVGLIRELNNNIRTVASLYGDLSHSFARSVDASSEGESTGTLKSDGKANNQKRFRSG”, which protein production is on record?
A: failed

Q: For “MEGFVLAGTSSGVGKTVATLATLTALEDAGYQPQPAKAGPDFIDPSHHEALVDTPSRTLDPWLAGEDGMRRTYWRGTGDICVVEGVMGLYDGTKTSTAAVAEGLDLPVVLVVDAKAGMESVAATALGFAQYADRIGVDIEVAGILAQRAHGGRHADGIRDALPEDLTYFGRIPPMSDLEIPDRHLGLHMGSEAGLDRDALSTAAETIDIERLVETARAPPEVATTERNTGDSPADRRVAVAQDSAFCFIYPSVLERLRSEASVEPFSPVAGDSVPDADAIYLPGGYPELHGESLETGGTLDEIAVRAADGVPVYGECGGLMALSESLTTTDGDTYEMAGVLPADIEMQDRYQALDHVELEARADTVAATSGAHRRGHEFHYSAATLGSDASFAFDMVRGDGIDGEHDGLTEYSTIGTYCHCHGESGAFDRLLAVPSKDILEHHHHHH”, which protein production is on record?
A: failed

Q: For “MEGGYKLNITKAIVVAIYIIVGAALGVIIIPEVVTDLGIHHHAVITNYYVDGFIGIIIFFIIFGLFINKVTYAFKQFEQLIMRRSAVEILFATIGLIIGLFISVMVSFILEMIGNSILNHFVPMIITIILCYLGFQFGLKKRDEMLMFLPENMARSMSNNIRRATPKIVDTSAIIDGRILDIIRCGFIDGDILIPQGVINELQVIADAKDSVKREKGQRGLDILNQLYDLDYPTRVIHPTQSHSDIDTLLIKLAQQYHAHVITTDFNLNKVCHVQGITALNVNDLSEAIKPNVHQGDQLSILLTKIGKEPGQGVGYLDDGTMVVVDNAKSYIGQQVNLEVVSLLQTSSGRIVFAKFVD”, which protein production is on record?
A: failed

Q: For “MEGSSSTIARKTWELENSILTVDSPDSTSDNIFYYDDTSQTRFQQEKPWENDPHYFKRVKISALALLKMVVHARSGGTIEIMGLMQGKTDGDTIIVMDAFALPVEGTETRVNAQDDAYEYMVEYSQTNKLAGRLENVVGWYHSHPGYGCWLSGIDVSTQRLNQQHQEPFLAVVIDPTRTVSAGKVEIGAFRTYSKGYKPPDEPVSEYQTIPLNKIEDFGVHCKQYYSLDVTYFKSSLDSHLLDLLWNKYWVNTLSSSPLLGNGDYVAGQISDLAEKLEQAESHLVQSRFGGVVPSSLHKKKEDESQLTKITRDSAKITVEQVHGLMSQVIKDELFNSMRQSNNKSPTDSSDPDPMITY”, which protein production is on record?
A: failed

Q: Which protein production does the source give for “MEGWDPNTKSTLTRIPLLTTKAGPRDGAAWTQRLKEEYKSLIAYTQMNKSNDNDWFRISASNPEGTRWTGKCWYVHNLLKYEFDLQFDIPITYPATAPELELPEIDGKTQKMYRGGKICLTVHFKPLWAKNCPRFGIAHALCLGLAPWLAAEIPILVDSGAIKHKDDAATSAES” here?
A: failed

Q: With “MEHEYQRAVTRVCVQTALLLLQHGAESTVVVQMAQRLGVALGVESVECALTANAVVLTTLSDNHCITTARKNTDKGINMQMVTDVQRIVIAVEHHLYELEIAQRKLDQLKPLKYNRWLVVFMIGLSCAAFAHLSSGDWIICGITIFMLKLLYDMLFAAIPAVGFALVFNVPPKALKYCAILAALGHVTRTLLLHINMPIVFATFFATCVIGFLGVHLSHRYLAHPKAFTVAAIIPMIPGVHAYKAMISMVQIHHFGFSDALFEQMISSFINTSFILGAIVFGLALPGLLFYRQKPVV” as the sequence, how does the protein production read?
A: failed

Q: With “MEHGTESFWTDIKRYEDILAKDPGSYCFAPLSELYRKVGLLDDAIMTARTGIGQHPEYVGGYMALGRACFEKGERTESRAALEKVVRVTPDNLLAQKLLSQIYVDAGESDLARRCLEIILSLSPGDLESKLMLDAMCRQPRENADRADDLFNEMGAAAAIDLEDESLLEEIEIIEELVDEVVDEEDLAAFTAHAPPPPLAEESFADVLLDEEPVANADVPSPRDVLSTGTVADLYIAQGFPKKALAIYRDLLDADPLNEDIRNRMVDLKKRIDEDEARARESVLAEAVSATDTTAQIQGDLTADREAFKEEAASGFAVESAHEVDIPLEVAVSAESSLNVAEEKEASAAHVVSALEGWLDSIRRIRQCRSVLH” as the sequence, how does the protein production read?
A: failed
